Assay results reported in patent US20200231648A1 (LENTIGEN TECHNOLOGY, published 2020).

Assays:
[1] = target: T1, CD20-biotin (Miltenyi Biotec) (UniProt P11836 142-188, limits assumed, biotin (site not stated)); test: flow cytometry, CAR T cells stained with CD19-Fc and CD20-biotin
T1 construct: Bought staining reagent, 0.1 ug/sample, detected with streptavidin conjugate; also called recombinant CD20; CD20 biotin reagent
T1 chain (looked up): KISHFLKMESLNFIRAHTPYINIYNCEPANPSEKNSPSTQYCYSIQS
Experimental: (§1) Cells were washed twice and resuspended in 200 ul Staining Buffer before quantitative analysis by flow cytometry.

CD19-Fc (R&D Biosystems) = target: T2, CD19-Fc (R&D Biosystems) (UniProt P15391 20-291); test: as above
T2 construct: Bought staining reagent, 1 ug/sample; also called recombinant CD19; not shown: Fc part of the bought reagent (detected with goat anti-human Fc-gamma)
T2 sequence (looked up): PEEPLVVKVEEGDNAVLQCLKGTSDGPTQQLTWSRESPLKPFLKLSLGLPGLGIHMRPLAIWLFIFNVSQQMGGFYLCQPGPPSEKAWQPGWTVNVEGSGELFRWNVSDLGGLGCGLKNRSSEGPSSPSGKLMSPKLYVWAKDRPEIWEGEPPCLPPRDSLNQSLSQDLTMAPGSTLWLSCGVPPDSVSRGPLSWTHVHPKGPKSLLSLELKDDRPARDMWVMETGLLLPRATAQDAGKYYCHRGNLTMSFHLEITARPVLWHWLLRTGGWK
Experimental: as §1

binding result [1]: no binding (tested: 0.1 ug/sample)
binding result (CD19-Fc (R&D Biosystems)): no binding (tested: 1 ug/sample)
B1: CAR LTG2200 (LP-2200-CD8 TM-41BB-CD3zeta) (other)
chain: QVQLQQSGPGLVKPSQTLSLTCAISGDSVSSNSAAWNWIRQSPSRGLEWLGRTYYRSKWYNDYAVSVKSRITINPDTSKNQFSLQLNSVTPEDTAVYYCAREVTGDLEDAFDIWGQGTMVTVSSGGGGSGGGGSGGGGSDIQMTQSPSSLSASVGDRVTITCRASQTIWSYLNWYQQRPGKAPNLLIYAASSLQSGVPSRFSGRGSGTDFTLTISSLQAEDFATYYCQQSYSIPQTFGQGTKLEIKAAATTTPAPRPPTPAPTIASQPLSLRPEACRPAAGGAVHTRGLDFACDIYIWAPLAGTCGVLLLSLVITLYCKRGRKKLLYIFKQPFMRPVQTTQEEDGCSCRFPEEEEGGCELRVKFSRSADAPAYQQGQNQLYNELNLGRREEYDVLDKRRGRDPEMGGKPRRKNPQEGLYNELQKDKMAEAYSEIGMKGERRRGKGHDGLYQGLSTATKDTYDALHMQALPPR
notes: Chimeric antigen receptor with the m971 anti-CD22 scFv on primary human T cells; The entry includes the leader peptide; also called 22-BBz; CAR22 LTG2200
